The values below come from PMC2912912 (BMC Structural Biology, 2010).

To fix the notation:
B1: IpgC^10-155 (invasion plasmid gene C, residues 10-155) (domain or fragment)
chain: SISTAVIDAINSGATLKDINAIPDDMMDDIYSYAYDFYNKGRIEEAEVFFRFLCIYDFYNVDYIMGLAAIYQIKEQFQQAADLYAVAFALGKNDYTPVFHTGQCQLRLKAPLKAKECFELVIQHSNDEKLKIKAQSYLDAIQDIKE
notes: source: E. coli BL21 (DE3), purified (Ni2+-NTA Sepharose, TEV digestion, Resource Q)
B2: full-length IpgC (invasion plasmid gene C) (natural protein)
chain: MSLNITENESISTAVIDAINSGATLKDINAIPDDMMDDIYSYAYDFYNKGRIEEAEVFFRFLCIYDFYNVDYIMGLAAIYQIKEQFQQAADLYAVAFALGKNDYTPVFHTGQCQLRLKAPLKAKECFELVIQHSNDEKLKIKAQSYLDAIQDIKE
B3: IpgC^21-155 (invasion plasmid gene C, residues 21-155) (domain or fragment)
chain: SGATLKDINAIPDDMMDDIYSYAYDFYNKGRIEEAEVFFRFLCIYDFYNVDYIMGLAAIYQIKEQFQQAADLYAVAFALGKNDYTPVFHTGQCQLRLKAPLKAKECFELVIQHSNDEKLKIKAQSYLDAIQDIKE

Several values for one entry are separate records, joined by “and”; a condition that tells them apart may be missing. Equal entries are not always repeated.

This series deals with the molecule itself. Put plainly: SEC; analytical gel filtration, Tricorn Superdex 200 10/300, samples 5 mg/mL, 20 mM Tris-HCl pH 8.0, 200 mM NaCl, 1 mM DTT, 4°C; molecular weight against globular standards.
As to B1, the “stoichiometry N” value was 2.
For B2, the “stoichiometry N” value was found to be 2.
On to B3, for which the “stoichiometry N” value was 4 and 2.

A word on the stoichiometry N: it is a count of units in the complex or per binding partner.
